{"source": "the DeepSol protein solubility set"}
{"assay": "soluble on expression in E. coli; label from the status in PepcDB or PDB records"}
{"sequence": "SVKVVIEADGGSRGNPGPAGYGAVVWTADHSTVLAESKQAIGRATNNVAEYRGLIAGLDDAVKLGATEAAVLMDSKLVVEQMSGRWKVKHPDLLKLYVQAQALASQFRRINYEWVPRARNTYADRLANDAMDAAAQSAAAD", "soluble on expression in E. coli": "soluble"}
{"sequence": "MAWVVNKQSTQEELANRFRALVEANEILQIPGAHDAMAALVARNTGFLALYLSGAAYTASKGLPDLGIVTSTEVAERARDLVRATDLPVLVDIDTGFGGVLNVARTAVEMVEAKVAAVQIEDQQLPKKCGHLNGKKLVTTEELVQKIKAIKEVAPSLYIVARTDARGVEGLDEAIERANAYVKAGADAIFPEALQSEEEFRLFNSKVNAPLLANMTEFGKTPYYSAEEFANMGFQMVIYPVTSLRVAAKAYENVFTLIKETGSQKDALSNMQTRSELYETISYHDFEELDTGIAKTVLSEDQ", "soluble on expression in E. coli": "not soluble"}
{"sequence": "MNVIALMAGDSNDFKEKGYTYPKYFLELDNKPLVQNIVESLKKIDCKITFIIRKEDNDQFFLGSSLKILAPFADVVCISGSTKGAVCTTLFAIDSINNEDEVLLINGDQLVKYDINDIIADFRERNLDGGIVTFESVHPRWSYVCLDEQGLVVQTSEKRPISNVATAGIYYYKRGLDLVESCFSVLKKDVQLNGSYYISSTFNELILRQKKVGVYKIDKKEYISFATTQMYENYINKKLEHHHHHH", "soluble on expression in E. coli": "soluble"}
{"sequence": "MGKPSGERILQMKIALVMLAAGNSRRFGSNKLLYEIEGKPMYLLTLEKLKKASEKIPESEIIVVTQYEEIVKKAGEMKIPVFINPRPEDGISLSMQIGLMSVRDTDACLFTVSDQPWLEADTVVALTELFENEKKGMACIRWNGKTGNPCIFGQKYYEELMEISGDKGGKKIIKKHPEDVAYLQIRNARELQDADEPDVFTAGNLR", "soluble on expression in E. coli": "not soluble"}
{"sequence": "MGSDKIHHHHHHMKFSKLADQVWGEEPDDQVRSFVFMSNLDAQETANTMDVSVSVERIHADLCGNTELASELHYTPDEWDEAQGWVKINYPLIDDTASASLDVVLDATFQPLPGQPFEGEALTLIDALLHHAENVAASNPWKRTTFHTAHMHPPGSNADCDYCLVLQRRGYVKAHEEIQQTIPLPSGDWSAGEFTVVDVEGTAFPSALIPSIVELQHRAALDVPHGNLSVAPAQWDEHRLAQQSERILKTGTKLFTVLFAEGSTVAAMSSIAIPPGSNPDIAEQGLTIVHPDFRGRGLGTAVKLAGLSLLSRCHPEIQRVATSNAVDNHAMLAINRSIGATEIARTTLWEKKL", "soluble on expression in E. coli": "not soluble"}
{"sequence": "MFNKASFLTRLVASSVRVSEAAGGLIKNVMAGGDLKIIDKSEHGSGYDPQTEADRRAQYCIVQSLQKHFKNINIIGEEEDTTACPEIEMGFSADVLQMERLMSTELKNIQENDVVVWVDPLDGTSEVALAVKNKNMALLEQVTVLIGIAYKGRPVAGIIHQPYHEKLGRTVWAIQGCGVHGVVPATGNAQKIVVTTRSHLSESVSNALEALKTRNLADSVEKVGGAGFKVLKVLEGCAAYVFASAGCKKWDTCAVEAVLTAAGGTLTDISGRDIRYEPGVQLNNTGGVLATASWVKHKDYIDTIPQEIKNMLPEISSKK", "soluble on expression in E. coli": "not soluble"}
{"sequence": "MSLSAMARKVKITDVKCMIVRGTWDWNLIKIETDSGLYGIGEAYWGWGVKDLVVNKMKGIIVGEDPLNVDKLYTKMLMQSAGAGAIGGVTMTAASGIEIALWDLCGRILDTPVCNLLGGRFRDRIRFYRTTQAVKNVEDTKEWRALAESARAEKWGWTAFKFQGDGIPPRADPEFKEPGHDPYARNLTHKDHRRIVTAMETVRETLGPDADFAVECHWRYDTQDVISLGKELEPVKPMWLEDPVPPDNIEAMQRVTHAINVPVCTGENLYGRQGFRKLIEMQACSGVHIDIPKSGGLMESKKISDLADLYYIWTACHNPASPVGTIASCHASAAMREFRIHELANWVDWWPDLVIREGPFWKDGYFTIQDKPGYGVELNPDVAKAHLAPGETWWGEGHHHHHH", "soluble on expression in E. coli": "not soluble"}
{"sequence": "MKLIRKYHMIPYENGSEYESAKRFLENILSASDVDPTTKCRFYQDVLYRIRNHPELPIVTEELFDVIQENLQQQNDNQKRNVKLERRNLKYEVIPEKRESYQEKYYESPPVYKAENEQLFDDVTYHNDGINHLKPRKNVYIKEEPEDEDYHMEYEKIPEINMEQNVNELFMEPQKHAPGKIKKSKKQKKDGTLSRPLGKKEKKSVQYATSNKRQKFDLKRGKSMNNVKPRKLYKLQLDEEDEDEEPMVDETPQNTEISIKKRPFQQDSTKNLNKRQKFDLKRRKNMSRVRPNKIYKMQNLKRNISSTIPDNGTNIPAAKRRVLHGSGSAPPPGSRVYCRLWKF", "soluble on expression in E. coli": "not soluble"}
{"sequence": "GTIVITGTITDTTCVIEDPSGPNHTKVVQLPKISKNALKANGDQAGRTPFIIKLKDCPSSLGNGVKAYFEPGPTTDYSTGDLRAYKMVYATNPQTQLSNITAATEAQGVQVRISNLNDSKITMGANEATQQAAGFDPEVQTGGTSRTVTMRYLASYVKKNGDVEASAITTYVGFSVVYP", "soluble on expression in E. coli": "not soluble"}
{"sequence": "MATLTAKNLAKAYKGRRVVEDVSLTVNSGEIVGLLGPNGAGKTTTFYMVVGIVPRDAGNIIIDDDDISLLPLHARARRGIGYLPQEASIFRRLSVYDNLMAVLQIRDDLSAEQREDRANELMEEFHIEHLRDSMGQSLSGGERRRVEIARALAANPKFILLDEPFAGVDPISVIDIKRIIEHLRDSGLGVLITDHNVRETLAVCERAYIVSQGHLIAHGTPTEILQDEHVKRVYLGEDFRL", "soluble on expression in E. coli": "soluble"}
{"sequence": "SLSCRKEQGKFYDHLLRDCISCASICGQHPKQCAYFCENKLR", "soluble on expression in E. coli": "soluble"}
{"sequence": "PTEFLYTSKIAAISWAATGGRQQRVYFQDLNGKIREAQRGGDNPWTGGSSQNVIGEAKLFSPLAAVTWKSAQGIQIRVYCVNKDNILSEFVYDGSKWITGQLGSVGVKVGSNSKLAALQWGGSESAPPNIRVYYQKSNGSGSSIHEYVWSGKWTAGASFGSTVPGTGIGATAIGPGRLRIYYQATDNKIREHCWDSNSWYVGGFSASASAGVSIAAISWGSTPNIRVYWQKGREELYEAAYGGSWNTPGQIKDASRPTPSLPDTFIAANSSGNIDISVFFQASGVSLQQWQWISGKGWSIGAVVPTGTPAGW", "soluble on expression in E. coli": "soluble"}
{"sequence": "MSTAEQIATLENRINELELENKRLHETVAYLTRKLYGRSSEKTSALSVGQVSLFDEAEVYAVPQAPEPDLKEVQGYIRRKYKGQRTDLLKDIPHDKRLCTLAEEDRYCEACGTDLVSVGKEFIRTEIEFIPAKIRVIDYYRETFECRTCRKNGEPYMEKSPMPYPVIQHSMASPSTVAWIMHQKFVNHLPLYRQENEWKMLGVNLKRETMSNWILAAARDWLMPLVDLMHKKLLQEKYLHADETTVQVLNEEGRSNTTNSYMWVYSSGKYCKKQIRLFQYQPGRNGKYPQEFLKGFSGFLHTDAYSGYKKVPEITRCMCWTHLRRYFRDALPKDTQSPEATIPSQGIRFCNKLFEIEETLEKLTQEQRRLERLKQETPVLEAFWSWVDSVKDKVLPKSKIGEAIQYALNNKEDFMNYLLDGNCSISNNLSENSIRPFTLGRKNWLFSGSPRGADASAAVYSIVESAKANDINPYKYLYYIFSELPGVQFGQNPEFLEDYLPWSPDVQAACK", "soluble on expression in E. coli": "soluble"}
{"sequence": "MYAAYQTNGPARPIARTAAFTKEDDLLVDMARQNNLRGRILTYCVAGTFGLLSPNYLHASAATANWDINQIEISGLSESSVGAISESARDIAHIRAVTKISVSELSRVFGVSRQAVHEWIKGGTLSQRNAQRLSELARATDVFIEAEIEASPQVFRRKIAGGQSILDAVRENGNAVELAKTLAATLVRESQQRQRLAARLAGRSATPGTSTEFGSPHLDEDA", "soluble on expression in E. coli": "not soluble"}
{"sequence": "MGSDKIHHHHHHMQREKVDVLVIGAGPAGTVAASLVNKSGFKVKIVEKQKFPRFVIGESLLPRCMEHLDEAGFLDAVKAQGFQQKFGAKFVRGKEIADFNFSDQFSNGWNWTWQVPRGNFDKTLADEAARQGVDVEYEVGVTDIKFFGTDSVTTIEDINGNKREIEARFIIDASGYGRVIPRMFGLDKPSGFESRRTLFTHIKDVKRPVAAEMEGNRITAVVHKPKVWIWVIPFSNGNTSVGFVGEPSYFYYYTGTPEERMRAMIANEGHIAERFKSEEFLFEPRTIEGYAISASKLYGDGFVLTGNATEFLDPIFSSGATFAMESGSKGGKLAVQFLKGEEVNWEKDFVEHMMQGIDTFRSFVTGWYDGTLHAVFFAKNPDPDHKRMICSVLAGYVWDKNNPFVKKHNTILKTLAKVIQMGEEA", "soluble on expression in E. coli": "not soluble"}
{"sequence": "MDEFIIKRAKELQGYIVEKRRDFHMYPELKYEEERTSKIVEEELKKLGYEVVRTAKTGVIGILKGKEDGKTVALRADMDALPIQEENDVPYKSRVPGKMHACGHDAHTAMLLGAAKILAEMKDELQGTVKLIFQPAEEGGLGAKKIVEEGHLDDVDAIFGIHVWAELPSGIIGIKSGPLLASADAFRVLIKGKGGHGAAPHLSIDPIALAVDLVNAYQKIISREVDPLQPAVLSVTSIKAGTTFNVIPESAEILGTIRTFDEEVRDYIVRRMKEITENFANGMRCEGKFELTIEHIPPTINNEKLANFARDVLKVLGEIREPKPTMGAEDFAFYTTKAPGLFIFLGIRNEEKGIIYPHHHPKFNVDEDILWMGAAIHSLLTYHYLSL", "soluble on expression in E. coli": "soluble"}
{"sequence": "MEANSGGGGGAEGGRAVTGGGGGGGGSDVELVSKTLQVEHKLFYFDLKENPRGRYLKISEKTSATRSTIIVPSSGISWFLDLFNYYVNSEEHELFSKELQLDSKVFYFDIGENRRGRFLKVSEASVSRNRSTIIVPAGSSPDEGWAAFRNILAEIHEASGLFVMPNQKPSDGQEHLVDDVGAGFIPGHGSQQPSSSEHNVDRTIDSPGSDRSSIILPLSGLKQFHEVIGHFVEITKDKIEVLILLEDGNFQSSNHLNLATSSRLPDRGVQ", "soluble on expression in E. coli": "soluble"}
{"sequence": "MGSDKIHHHHHHMPAFPLNAWYAAAWDADIKHALFPRTICGKHVVMYRKADGTVAALEDACWHRLVPLSKGRLEGDTVVCGYHGLKFNPQGRCTYMPSQETINPSACVRSYPVVERHRFVWLWMGDPVLADPALVPDMHWNDDPAWAGDGKTIYAKCDWRLVVDNLMDLTHETYVHGSSIGNEAVAEAPFDVTHGDRTVTVTRWMKGIEPPPFWAAQLGKPGLVDRWQIIRFEAPGTVTIDVGVAPAGTRAPEGDRSQGVNGFVLNTMTPETDTTCHYFWAFVRNYRLSEQRLTTEIREGVSGIFREDEIILEAQQRAMLENPDRVFYNLNIDAGAMWSRKLIDRMVAQESAPKLQAAE", "soluble on expression in E. coli": "not soluble"}
{"sequence": "MVSYGSHSSEVSKVLKTPKFVLRYGNVSSKQRFALKRKINYKLRESKYQEYLNEYNTFVLYDWENSGAGSLVDSSYNLPSLWKEFITEGISKGAINDKLPTVFMKRKLTNSALGHCLGLDFLTDPSESEHEYRCMFQTVQDIPSLSQLILFNSMPNVPVRLKLHTIGININFGCKRSLISNGGDQDTEMSEAVSYIQPLLEESSRMYRNLNYWKLLKIARNNKKDEPLDQSTRIKSQVKLLLSQLATNRITSPSVTDHGGHNWLIFTRRRL", "soluble on expression in E. coli": "not soluble"}
{"sequence": "MQEESYYNLTVGDTHDRLHNFQITVDTDYRNFVQLVNTMRSPNIAQQDRAFLQLQQLGLQHPDYIRKARVPETMRQFAEGAAGKRRIRSCHGTYLHWYDEGLKVDMKSGEAGTCENWIIEDWNEKVVFRAVDPRGKYLRACLGSNQLTLVYIPEPTELWSPFENGNGTWSFLSSNGTWLSAHEDGQVCTVKDRQACEEFLLESW", "soluble on expression in E. coli": "not soluble"}
{"sequence": "MGSDKIHHHHHHMVNDMQERQNRYWQLLHQPDRLLLLHQASSVEQFVTLMGDWLAWPELTLDQMLDFVHMQRWEDFTPKLALFSQAWLPYRYCSQSKEVYWIPAFNQLSKPFLEDDISDIRLGLLAIFIQPKTLLKSLLTQCDSVPEIHPCLMIFHWSRCGSTLVSSSFSKLNDCLVISESMLCSDIMRDDFWSQEVKVKLVDLCLRLQGRFRHGERHLVVKWNAWDLAYWPMLLALYPQSRVLCLIRNPKDILASHQRLAGRHMVEGQGLLSTEWHIQQIETVSTTFSLNKFRISVLQHLAQLTHALLNSNRAILLDYQQVKDFHPTTLSTILGRPLSMDEIECWQDHWCFDAKQQGQVFTPAVSNQPVPLRELQSPSWQQLFMTYNQLLQRLYWDKKHDV", "soluble on expression in E. coli": "not soluble"}
